Measured values: patent publication CN114907482A
Changes are numbered by the printed parent chain.

B1: 鼠单抗1B10 (antibody, V domains shown)
VH: QVQLKESGPGLVAPSQSLSITCTVSGFSLTSYVINWVRQPPGKGLEWLGVIWTGGGTNYNSALKSRLSISKDTSKSQVFLKMNSLQTDDTARYYCARGAYYGNAMDYWGQGTSVTVSS
VL: DIVMTQSPSSLTVTAGEKVTMSCKSSQSLLNSGNQKNYLTWYQQKPGQPPKLLIYWAATRESGVPDRFTGSGSGTDFTLTISSVQAEDLAVYYCQNDYSYPFTFGSGTKLEIK
B2: 鼠单抗1A6 (antibody, V domains shown)
VH: QVQLQQPGAELVKPGASVKLSCKASGYTFTSYWMQWVKQRPGQGLEWIGMTHPNSGGTNYNEKFKSKATLTVDKSSSTAYMQLSSLTSEDSAVYYCARLGRGNAMDYWGQGTSVTVSS
VL: B1 VL with A58S, E61K, A90T, V91I

Target: 人Claudin18.2 (human) (UniProt P56856)
Assay: cell-based or functional assay

Row | 活细胞比率 (CDC, 20%人血浆, 30min, 293T-hClaudin18.2细胞; 无抗体对照81.34%) [%] | Binder
1 | 34 | B1
2 | 3.94 | B2
